The labels stand for the following.
T1: PUF4 RNA-binding domain (Saccharomyces cerevisiae, UniProt P25339 537-888)
T1 sequence: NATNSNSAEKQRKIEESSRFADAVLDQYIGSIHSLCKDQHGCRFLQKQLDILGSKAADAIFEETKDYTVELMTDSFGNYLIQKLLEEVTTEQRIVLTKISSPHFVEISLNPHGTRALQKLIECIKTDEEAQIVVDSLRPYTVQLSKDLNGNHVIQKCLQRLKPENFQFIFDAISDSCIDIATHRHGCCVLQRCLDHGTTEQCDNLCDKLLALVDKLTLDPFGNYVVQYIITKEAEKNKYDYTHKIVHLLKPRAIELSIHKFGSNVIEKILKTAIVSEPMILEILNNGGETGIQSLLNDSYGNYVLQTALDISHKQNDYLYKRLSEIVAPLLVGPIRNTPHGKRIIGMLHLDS

A value given as a limit tells only on which side of the number the result lay.

The data set concerns the target T1, PUF4 RNA-binding domain. Kind of data set: Mg; RNA-MaP; 20 mM Na-HEPES pH 7.4, 30 mM KOAc, 0.75 mM MgCl2, 0.1% Tween-20, 5% glycerol, 0.1 mg/mL BSA, 2 mM DTT; 25 C; 0.0125-409.6 nM protein. As to conditions: tags: N-His6-TEV cleaved; C-SNAP kept, Cy3B-labelled; label: tethered on chip by stalled RNA polymerase.
As for UCUCUUUGUAUUGUGUCUCUU (ssRNA) [Ic_S1_P4E.1_K4.1_C4.1_H4.1_A4.1_[A6T]_[T7G]_F4.1_[A9G]_T4.1], the Kd (commonly the free concentration of one partner at which half of the binding sites on the other are occupied at equilibrium, for simple one-to-one binding) is 40.2 nM.

Consider UCUCUUUGUAUAACCUCUCUU (ssRNA) [Ic_S1_P4E.1_K4.1_C4.1_H4.1_A4.1_[T7A]_F4.1_[T8C]_[A9C]_T4.1], for which the Kd was 62.8 nM.

In turn, UCUCUUUGUAUUUAGUCUCUU (ssRNA) [Ic_S1_P4E.1_K4.1_C4.1_H4.1_A4.1_[A6T]_F4.1_[T8A]_[A9G]_T4.1] showed a Kd of 25.3 nM.

UCUCUUUGUAUAACGUCUCUU (ssRNA) [Ic_S1_P4E.1_K4.1_C4.1_H4.1_A4.1_[T7A]_F4.1_[T8C]_[A9G]_T4.1] showed a Kd of 42.3 nM.

UCUCUUUGUAUACGCUCUCUU (ssRNA) [Ic_S1_P4E.1_K4.1_C4.1_H4.1_A4.1_[T7C]_F4.1_[T8G]_[A9C]_T4.1] had a Kd of 367 nM.

In turn, UCUCUUUGUAUUACUUCUCUU (ssRNA) [Ic_S1_P4E.1_K4.1_C4.1_H4.1_A4.1_[A6T]_[T7A]_F4.1_[T8C]_[A9T]_T4.1] displayed a Kd of 49.6 nM.

As for UCUCUUUGUAUUAGUUCUCUU (ssRNA) [Ic_S1_P4E.1_K4.1_C4.1_H4.1_A4.1_[A6T]_[T7A]_F4.1_[T8G]_[A9T]_T4.1], the Kd amounted to 431 nM.

Regarding UCUCUUUGUAUUAAUCUCUU (ssRNA) [Ib_S1_P3E.1_K3.1_C3.1_H3.1_A3.1_[A6T]_F3.1_[T7A]_T3.1], the affinity, expressed as Kd, was 312 nM.

UCUCUUUGUAUAGCGUCUCUU (ssRNA) [Ic_S1_P4E.1_K4.1_C4.1_H4.1_A4.1_[T7G]_F4.1_[T8C]_[A9G]_T4.1] had a Kd of 283 nM.

In turn, UCUCUUUGUAUACACUCUCUU (ssRNA) [Ic_S1_P4E.1_K4.1_C4.1_H4.1_A4.1_[T7C]_F4.1_[T8A]_[A9C]_T4.1] displayed a Kd of 118 nM.

With UCUCUUUGUAUUUACUCUCUU (ssRNA) [Ic_S1_P4E.1_K4.1_C4.1_H4.1_A4.1_[A6T]_F4.1_[T8A]_[A9C]_T4.1], the Kd worked out at 74.9 nM.

Molecule UCUCUUUGUAUAGCCUCUCUU (ssRNA) [Ic_S1_P4E.1_K4.1_C4.1_H4.1_A4.1_[T7G]_F4.1_[T8C]_[A9C]_T4.1] came in with a Kd of 108 nM.

On to UCUCUUUGUAUUCAUUCUCUU (ssRNA) [Ic_S1_P4E.1_K4.1_C4.1_H4.1_A4.1_[A6T]_[T7C]_F4.1_[T8A]_[A9T]_T4.1], for which the Kd was determined as 141 nM.

The molecule UCUCUUUGUAUUCCAUCUCUU (ssRNA) [Ic_S1_P4E.1_K4.1_C4.1_H4.1_A4.1_[A6T]_[T7C]_F4.1_[T8C]_T4.1] showed a Kd of 454 nM.

Regarding UCUCUUUGUAUUAUGUCUCUU (ssRNA) [Ic_S1_P4E.1_K4.1_C4.1_H4.1_A4.1_[A6T]_[T7A]_F4.1_[A9G]_T4.1], the dissociation constant (Kd) amounted to 10.8 nM.

UCUCUUUGUAUUCGAUCUCUU (ssRNA) [Ic_S1_P4E.1_K4.1_C4.1_H4.1_A4.1_[A6T]_[T7C]_F4.1_[T8G]_T4.1] came in with a Kd of 753 nM.

As for UCUCUUUGUACAUCUCUCUU (ssRNA) [Ib_S1_P3E.1_K3.1_C3.1_H3.1_A3.1_[T5C]_F3.1_[A8C]_T3.1], the Kd came to 15.9 nM.

Consider UCUCUUUGUAUUCGCUCUCUU (ssRNA) [Ic_S1_P4E.1_K4.1_C4.1_H4.1_A4.1_[A6T]_[T7C]_F4.1_[T8G]_[A9C]_T4.1], for which the Kd was found to be 1060 nM.

Consider UCUCUUUGUAUUUCGUCUCUU (ssRNA) [Ic_S1_P4E.1_K4.1_C4.1_H4.1_A4.1_[A6T]_F4.1_[T8C]_[A9G]_T4.1], for which the affinity, expressed as Kd, was 462 nM.

With UCUCUUUGUAUUGUUUCUCUU (ssRNA) [Ic_S1_P4E.1_K4.1_C4.1_H4.1_A4.1_[A6T]_[T7G]_F4.1_[A9T]_T4.1], the affinity, expressed as Kd, was 33.6 nM.

In turn, UCUCUUUGUAUUCCUUCUCUU (ssRNA) [Ic_S1_P4E.1_K4.1_C4.1_H4.1_A4.1_[A6T]_[T7C]_F4.1_[T8C]_[A9T]_T4.1] gave a Kd of 114 nM.

Molecule UCUCUUUGUAUACCCUCUCUU (ssRNA) [Ic_S1_P4E.1_K4.1_C4.1_H4.1_A4.1_[T7C]_F4.1_[T8C]_[A9C]_T4.1] gave a Kd of 93.4 nM.

Take UCUCUUUGUAUUUGCUCUCUU (ssRNA) [Ic_S1_P4E.1_K4.1_C4.1_H4.1_A4.1_[A6T]_F4.1_[T8G]_[A9C]_T4.1]: the equilibrium dissociation constant (Kd) worked out at 350 nM.

For UCUCUUUGUAUUACGUCUCUU (ssRNA) [Ic_S1_P4E.1_K4.1_C4.1_H4.1_A4.1_[A6T]_[T7A]_F4.1_[T8C]_[A9G]_T4.1], binding was characterised by a dissociation constant (Kd) of 844 nM.

The molecule UCUCUUUGUAUUUAUUCUCUU (ssRNA) [Ic_S1_P4E.1_K4.1_C4.1_H4.1_A4.1_[A6T]_F4.1_[T8A]_[A9T]_T4.1] registered a Kd of 31.8 nM.

In the case of UCUCUUUGUAUUAUCUCUCUU (ssRNA) [Ic_S1_P4E.1_K4.1_C4.1_H4.1_A4.1_[A6T]_[T7A]_F4.1_[A9C]_T4.1], binding was put at a Kd of 19.3 nM.

Turning to UCUCUUUGUAUUCUUUCUCUU (ssRNA) [Ic_S1_P4E.1_K4.1_C4.1_H4.1_A4.1_[A6T]_[T7C]_F4.1_[A9T]_T4.1], the affinity, expressed as Kd, was 27.1 nM.

For UCUCUUUGUAUUACCUCUCUU (ssRNA) [Ic_S1_P4E.1_K4.1_C4.1_H4.1_A4.1_[A6T]_[T7A]_F4.1_[T8C]_[A9C]_T4.1], the Kd was found to be 511 nM.

In turn, UCUCUUUGUAUUAAUUCUCUU (ssRNA) [Ic_S1_P4E.1_K4.1_C4.1_H4.1_A4.1_[A6T]_[T7A]_F4.1_[T8A]_[A9T]_T4.1] came in with a Kd of 86.5 nM.

UCUCUUUGUAUUUCCUCUCUU (ssRNA) [Ic_S1_P4E.1_K4.1_C4.1_H4.1_A4.1_[A6T]_F4.1_[T8C]_[A9C]_T4.1] had a Kd of 313 nM.

Molecule UCUCUUUGUAUUAUUUCUCUU (ssRNA) [Ic_S1_P4E.1_K4.1_C4.1_H4.1_A4.1_[A6T]_[T7A]_F4.1_[A9T]_T4.1] had a Kd of 12.6 nM.

UCUCUUUGUAUUGCAUCUCUU (ssRNA) [Ic_S1_P4E.1_K4.1_C4.1_H4.1_A4.1_[A6T]_[T7G]_F4.1_[T8C]_T4.1]: binding was put at a Kd of 365 nM.

UCUCUUUGUAUACAGUCUCUU (ssRNA) [Ic_S1_P4E.1_K4.1_C4.1_H4.1_A4.1_[T7C]_F4.1_[T8A]_[A9G]_T4.1] showed a Kd of 95.6 nM.

Molecule UCUCUUUGUAUACCGUCUCUU (ssRNA) [Ic_S1_P4E.1_K4.1_C4.1_H4.1_A4.1_[T7C]_F4.1_[T8C]_[A9G]_T4.1] displayed a Kd of 542 nM.

The molecule UCUCUUUGUAUUAGCUCUCUU (ssRNA) [Ic_S1_P4E.1_K4.1_C4.1_H4.1_A4.1_[A6T]_[T7A]_F4.1_[T8G]_[A9C]_T4.1] came in with a Kd of 530 nM.

As to UCUCUUUGUAUUGCUUCUCUU (ssRNA) [Ic_S1_P4E.1_K4.1_C4.1_H4.1_A4.1_[A6T]_[T7G]_F4.1_[T8C]_[A9T]_T4.1], binding was characterised by a dissociation constant (Kd) of 443 nM.

With UCUCUUUGUAUUUGGUCUCUU (ssRNA) [Ic_S1_P4E.1_K4.1_C4.1_H4.1_A4.1_[A6T]_F4.1_[T8G]_[A9G]_T4.1], the Kd was 630 nM.

In the case of UCUCUUUGUAUACGGUCUCUU (ssRNA) [Ic_S1_P4E.1_K4.1_C4.1_H4.1_A4.1_[T7C]_F4.1_[T8G]_[A9G]_T4.1], binding was put at a Kd of 683 nM.

On to UCUCUUUGUAUUAAAUCUCUU (ssRNA) [Ic_S1_P4E.1_K4.1_C4.1_H4.1_A4.1_[A6T]_[T7A]_F4.1_[T8A]_T4.1], for which the affinity, expressed as Kd, was 95.4 nM.

The molecule UCUCUUUGUACAUGUCUCUU (ssRNA) [Ic_S1_P3E.1_K3.1_C3.1_H3.1_A3.1_[T5C]_F3.1_[A8G]_T3.1] registered a dissociation constant Kd of 21.8 nM.

As to UCUCUUUGUAUUCAGUCUCUU (ssRNA) [Ic_S1_P4E.1_K4.1_C4.1_H4.1_A4.1_[A6T]_[T7C]_F4.1_[T8A]_[A9G]_T4.1], binding was characterised by a dissociation constant (Kd) of 642 nM.

As to UCUCUUUGUAUUCGGUCUCUU (ssRNA) [Ic_S1_P4E.1_K4.1_C4.1_H4.1_A4.1_[A6T]_[T7C]_F4.1_[T8G]_[A9G]_T4.1], the Kd is over 2300 nM.

UCUCUUUGUAAAUGUCUCUU (ssRNA) [Ic_S1_P3E.1_K3.1_C3.1_H3.1_A3.1_[T5A]_F3.1_[A8G]_T3.1] had a Kd of 97.5 nM.

In turn, UCUCUUUGUAUUCCCUCUCUU (ssRNA) [Ic_S1_P4E.1_K4.1_C4.1_H4.1_A4.1_[A6T]_[T7C]_F4.1_[T8C]_[A9C]_T4.1] returned a Kd of 505 nM.

In the case of UCUCUUUGUAUACAUUCUCUU (ssRNA) [Ic_S1_P4E.1_K4.1_C4.1_H4.1_A4.1_[T7C]_F4.1_[T8A]_[A9T]_T4.1], the Kd came out at 48.5 nM.

Molecule UCUCUUUGUAUUCUCUCUCUU (ssRNA) [Ic_S1_P4E.1_K4.1_C4.1_H4.1_A4.1_[A6T]_[T7C]_F4.1_[A9C]_T4.1] gave a Kd of 38.5 nM.

(Values after paper PMC9352680, “A comprehensive thermodynamic model for RNA binding by the Saccharomyces cerevisiae Pumilio protein PUF4”.)
